{"source": "paper PMC11617674", "about": "“The activity of the ribonucleotide monophosphatase UmpH is controlled by interaction with the GlnK signaling protein in Escherichia coli” (The Journal of Biological Chemistry, 2024)", "molecular_target": "T1, UmpH (ribonucleotide monophosphatase), untagged recombinant (E. coli, UniProt P0AF24 1-250)", "T1 construct": "UmpH (NagD), ribonucleotide monophosphatase of E. coli; also called NagD; untagged UmpH; source: E. coli BL21 (λDE3), pET29a, purified (ammonium sulfate, gel filtration)", "T1 sequence (looked up)": "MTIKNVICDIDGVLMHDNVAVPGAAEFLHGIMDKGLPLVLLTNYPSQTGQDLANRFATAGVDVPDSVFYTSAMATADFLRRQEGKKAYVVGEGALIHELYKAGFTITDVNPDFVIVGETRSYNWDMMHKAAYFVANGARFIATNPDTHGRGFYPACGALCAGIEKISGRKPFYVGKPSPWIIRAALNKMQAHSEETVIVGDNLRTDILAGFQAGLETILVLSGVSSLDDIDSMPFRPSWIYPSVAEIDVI", "experiment": "pull-down; His-PII on Ni2+ magnetic beads, untagged UmpH; 50 mM Tris-HCl pH 8.0, 0.1 M NaCl, 5 mM MgCl2, 10% glycerol, 20 mM imidazole; room temperature; without nucleotides or with ATP or ADP (effectors as indicated); SDS-PAGE, Coomassie", "settings": "both partners purified"}
{"binder": "His-GlnB from Azospirillum brasilense (natural protein, UniProt P21193 1-112, looked up, GlnB, PII protein of Azospirillum brasilense; also called GlnBAb; His-AbPII; not shown: His tag, N-terminal, kept) MKKIEAIIKPFKLDEVKEALHEVGIKGITVTEAKGFGRQKGHTELYRGAEYVVDFLPKVKIEVVMEDSLVERAIEAIQQAAHTGRIGDGKIFVTPVEEVVRIRTGEKGGDAI", "values": [{"measurement": "binding result", "result": "binds"}]}
